This passage reports binding result, koff and kon results from patent US20240010735A1 (EISAI R AND D MANAGEMENT, published 2024).

The target in assay [1] is T1, human EphA7 extracellular region-SEAP-His protein (human, UniProt Q15375 28-555).
T1 construct: extracellular domain; also called Eph receptor extracellular region-SEAP-His protein; not shown: secretory alkaline phosphatase (SEAP); histidine tag
T1 sequence (looked up): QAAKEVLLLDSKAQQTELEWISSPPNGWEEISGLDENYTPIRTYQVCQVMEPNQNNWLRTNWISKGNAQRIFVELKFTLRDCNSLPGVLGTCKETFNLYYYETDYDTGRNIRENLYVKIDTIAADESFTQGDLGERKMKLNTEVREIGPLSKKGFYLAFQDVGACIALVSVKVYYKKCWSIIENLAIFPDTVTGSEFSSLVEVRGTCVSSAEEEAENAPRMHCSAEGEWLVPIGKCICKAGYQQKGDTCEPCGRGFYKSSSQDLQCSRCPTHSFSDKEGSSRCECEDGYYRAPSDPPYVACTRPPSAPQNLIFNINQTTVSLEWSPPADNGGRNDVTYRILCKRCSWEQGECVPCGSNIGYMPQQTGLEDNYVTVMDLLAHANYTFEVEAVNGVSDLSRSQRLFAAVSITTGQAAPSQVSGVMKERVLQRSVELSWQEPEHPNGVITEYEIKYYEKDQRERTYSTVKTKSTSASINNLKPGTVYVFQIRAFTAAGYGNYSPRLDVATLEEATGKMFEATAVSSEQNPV
Kind of assay: ELISA: SEAP-His proteins (1 nM) captured on anti-6-His antibody, antibody A 10 µg/mL with human IgG 100 µg/mL, HRP anti-mouse IgG, OD450 as % of human EphA4-SEAP-His.

The target of assay [2] is T2, human EphB3 extracellular region-SEAP-His protein (human, UniProt P54753 34-559).
T2 construct: extracellular domain; also called Eph receptor extracellular region-SEAP-His protein; not shown: secretory alkaline phosphatase (SEAP); histidine tag
T2 sequence (looked up): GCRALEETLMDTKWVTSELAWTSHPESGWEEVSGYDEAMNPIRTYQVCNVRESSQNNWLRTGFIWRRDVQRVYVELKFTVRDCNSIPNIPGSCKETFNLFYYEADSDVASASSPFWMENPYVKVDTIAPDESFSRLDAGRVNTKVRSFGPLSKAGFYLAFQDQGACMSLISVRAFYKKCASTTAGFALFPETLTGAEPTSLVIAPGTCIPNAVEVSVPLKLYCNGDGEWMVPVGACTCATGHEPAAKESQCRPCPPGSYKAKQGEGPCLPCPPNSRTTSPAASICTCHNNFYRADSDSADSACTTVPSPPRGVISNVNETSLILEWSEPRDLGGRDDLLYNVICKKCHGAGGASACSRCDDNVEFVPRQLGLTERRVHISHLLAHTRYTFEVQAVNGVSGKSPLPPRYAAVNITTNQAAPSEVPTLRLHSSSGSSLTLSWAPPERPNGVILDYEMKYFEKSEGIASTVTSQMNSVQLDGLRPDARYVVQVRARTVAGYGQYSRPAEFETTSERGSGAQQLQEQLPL
The assay is described as above.

Assay [3] deals with T3, human EphA4 extracellular region-SEAP-His protein (human, UniProt P54764 20-547).
T3 construct: also called human EphA4 extracellular region-SEAP-His 10; not shown: secretory alkaline phosphatase (SEAP); histidine tag
T3 sequence (P54764 20-547): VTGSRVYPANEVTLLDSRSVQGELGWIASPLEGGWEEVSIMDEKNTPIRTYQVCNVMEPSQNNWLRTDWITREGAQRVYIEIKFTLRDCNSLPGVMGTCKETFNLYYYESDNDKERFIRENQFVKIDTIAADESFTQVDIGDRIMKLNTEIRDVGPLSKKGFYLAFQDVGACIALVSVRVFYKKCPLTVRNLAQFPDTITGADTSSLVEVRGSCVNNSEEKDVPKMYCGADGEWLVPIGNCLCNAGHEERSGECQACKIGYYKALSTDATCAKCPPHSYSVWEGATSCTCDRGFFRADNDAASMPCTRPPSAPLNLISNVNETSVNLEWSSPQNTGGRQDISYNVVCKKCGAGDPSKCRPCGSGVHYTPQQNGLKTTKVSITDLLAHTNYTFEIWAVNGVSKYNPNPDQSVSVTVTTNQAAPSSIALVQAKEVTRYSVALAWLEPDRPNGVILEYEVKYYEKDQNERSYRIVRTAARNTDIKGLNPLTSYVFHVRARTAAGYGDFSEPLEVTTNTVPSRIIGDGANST
Kind of assay: SPR (Biacore T200): human EphA4 extracellular region-SEAP-His captured on anti-His antibody, antibody A 1.6-100 nM as analyte, 1:1 fit. The protocol:
The binding affinity of antibody A against mouse and human EphA4 was determined by surface plasmon resonance (SPR method) employing Biacore T200 (GE Healthcare). First, anti-His antibodies (GE Healthcare, 28-9950-56) were fixed to a sensor chip CM5. Fixation was carried out by amine coupling method employing N-hydroxysuccinimide (NHS) and N-ethyl-N′-(3-dimethylaminopropyl) carbodiimide hydrochloride salt (EDC), and ethanolamine was employed for blocking (the sensor chip and reagents for fixation are all from GE Healthcare). This was diluted with the fixation buffer (10 mM sodium acetate, pH 4.5) to 3.5 μg/mL, and fixed onto the sensor chip according to the protocol accompanying Biacore T200. Mouse or human EphA4 extracellular region-SEAP-His 10 was diluted with the running buffer HBS-EP (GE Healthcare, BR-1001-88), and the solution was sent and captured onto the flow cell for 120 seconds (about 10 RU of captured amount). […] Fitting analysis by 1:1 binding model employing the software accompanying the system, BIA evaluation software, was carried out against the binding reaction curve obtained, and the binding affinity (KD=kd/ka) against mouse and human EphA4 was calculated.

B1: mouse anti-EphA4 monoclonal antibody (antibody A) (antibody, mouse IgG1, kappa, V domains shown)
VH: QVQLKQSGPSLVQPSQSLSITCTVSGFSLTRYGVHWVRQSPGKGLEWLGVIWRGGSTDYNAAFMSRLSITKDNSKSQVFFKMNSLQADDTAIYYCAKESLFGVYYDYGYYSMDYWGQGTSVTVSS
VL: DIQMTQSPSSLSASLGERVSLTCRASQEISGYLSWLQQKPDGTIKRLIYAASTLDSGVPKRFSGSRSGSDYSLTISSLESEDFADYYCLQYASYPLTFGAGTKLELKR
notes: purified from hybridoma supernatant
Regarding B1, the binding result in assay [1] is listed as “no binding (tested: 10 µg/mL)”. Also, the binding result in assay [2] is recorded as “no binding (tested: 10 µg/mL)”. Besides, in assay [3], the koff was 0.000448 s⁻¹ and the kon came to 379000 M⁻¹ s⁻¹.
